The target of one test is T1, human CLDN9 (human, UniProt O95484 1-217).
T1 construct: also called CLND9
T1 sequence: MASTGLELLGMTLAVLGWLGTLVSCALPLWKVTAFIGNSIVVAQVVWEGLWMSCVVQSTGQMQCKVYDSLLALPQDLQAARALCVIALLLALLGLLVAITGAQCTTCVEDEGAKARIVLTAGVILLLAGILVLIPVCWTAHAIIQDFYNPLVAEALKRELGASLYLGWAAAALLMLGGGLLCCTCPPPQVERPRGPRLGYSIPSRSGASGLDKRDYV
Briefly: flow cytometry on HEK293E cells expressing CLDN9. As to the method: (§1) The following experiments used to screen CLDN6 binding domains were generally performed as follows. HEK293T or HEK293E cells were respectively stably or transiently transfected to express CLDN6, CLND9, or other targets of interest. 48 hours post transfection, cells were harvested and incubated with dilutions of the indicated test articles for 1 hour at 4° C. […] Binding was then assessed via flow cytometry.

Test [1] deals with T2, human CLDN6 (human, UniProt P56747 1-220).
T2 construct: also called Claudin 6
T2 sequence: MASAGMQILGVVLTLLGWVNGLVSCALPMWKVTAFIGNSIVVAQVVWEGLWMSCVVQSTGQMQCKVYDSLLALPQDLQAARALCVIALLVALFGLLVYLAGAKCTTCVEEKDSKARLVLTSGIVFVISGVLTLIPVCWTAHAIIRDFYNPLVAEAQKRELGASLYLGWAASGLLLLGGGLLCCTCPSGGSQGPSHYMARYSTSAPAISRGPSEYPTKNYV
Description: flow cytometry on HEK293E cells expressing CLDN6 or CLDN9; EC50 on CLDN9 cells divided by EC50 on CLDN6 cells. As to the method:
as §1
Background: A flow cytometer gives signals particle by particle.

In the next test the target is T3, human CLDN17 (human, UniProt P56750 1-224).
T3 construct: whole, on cells
T3 sequence (looked up): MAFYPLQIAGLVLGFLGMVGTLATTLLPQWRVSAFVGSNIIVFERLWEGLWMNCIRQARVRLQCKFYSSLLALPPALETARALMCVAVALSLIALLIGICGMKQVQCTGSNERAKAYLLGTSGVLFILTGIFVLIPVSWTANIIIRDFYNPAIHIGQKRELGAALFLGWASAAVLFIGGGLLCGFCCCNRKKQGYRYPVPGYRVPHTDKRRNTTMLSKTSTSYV
Briefly: flow cytometry on transiently transfected 293 cells, 100 ug/ml. The protocol:
(§2) 293 cells were transiently transfected to express CLDN3, CLDN4, CLDN8, or CLDN17. Cells were plated and each test article was added to each cell line at a 100 μg/ml dose. After 1 hour incubation at 4° C., cells were washed and a secondary AF647 antibody was added. Cells were incubated at 4° C. for another hour, followed by additional washing and then analysis by flow cytometry.
(§3) 293 cells were transiently transfected with CLDN3, CLDN4, CLDN8, or CLDN17. Cells were plated and each test article was added to each cell line at a 100 μg/ml dose. After 1 hour incubation at 4° C., cells were washed and a secondary AF647 antibody was added. Cells were incubated at 4° C. for another hour, followed by additional washing and then analysis by flow cytometry. […] This highlights the potential of CLDN6 binding domains having specificity for binding not only CLDN6 but also other claudin family members.

A further test has as its target T4, human CLDN8 (human, UniProt P56748 1-225).
T4 construct: whole, on cells
T4 sequence (looked up): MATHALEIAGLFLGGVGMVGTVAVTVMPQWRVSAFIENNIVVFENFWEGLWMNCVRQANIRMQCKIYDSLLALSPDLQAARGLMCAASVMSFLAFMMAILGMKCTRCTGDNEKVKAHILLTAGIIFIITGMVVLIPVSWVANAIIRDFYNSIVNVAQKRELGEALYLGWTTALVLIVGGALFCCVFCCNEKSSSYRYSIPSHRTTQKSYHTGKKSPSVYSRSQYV
Described as above. As to the method:
as §2, §3

Test [2] concerns the target T2, human CLDN6. Description: flow cytometry on PA-1 cells engineered to a range of CLDN6 densities.
Description: PA-1 cells were engineered to stably express a range of CLDN6 antigen densities. […] Cells were washed, stained with a secondary antibody, and washed again prior to being analyzed using flow cytometry.
Cell lines were then washed, stained with secondary antibody, and washed again before measuring binding by flow cytometry.

B1: XENP36956 (antibody, V domains shown)
VH: QVQLVQSGAEVKKPGASVKVSCKTSGYTFTEYTMHWVRQAPGQSLEWMGGIDPNNGNTHYNQKFQGRVTITVDKSASTAYMELSSLRSEDTAVYYCARILYFGRLYFDFWGAGTLVTVSS
VL: DIQMTQSPSSLSASVGDRVTITCQASEDIYNRLAWYQQKPGKVPKLLISGATSLETGVPSRFSGSGSGKDYTFTISSLQPEDIATYYCQQYWSAPLTFGGGTKVEIKR
notes: Bivalent mAb, C6-30 combination variant; also called XENP36956 having H1.22_L1.87; XENP36956 having H1.22_L1.187; copies: 2 + 2
Regarding B1, the EC50 (in general, the midpoint of the concentration-response curve) in the test with human CLDN9 was determined as 29.6 µg/mL. Besides, the “CLDN9/CLDN6 EC50 ratio” value with human CLDN6 [1] was 44.9.

B2: XENP37217, CLDN6 x CD3 bispecific with comparator CLDN6 binding domain Comp_CHO02 in the 2+1 Fab2-scFv-Fc format (bispecific antibody)
heavy 1: EVQVEQSGLELVKPGASVKISCKTSGYTFTEYTMHWVKQSHGKSLEWIGGINPNNGNTRYNQKFKDKATLTVDKSSRTAYMELHTLTSEDSAVYYCARCGDYDLFFFFAYWGQGTLVTVSAASTKGPSVFPLAPSSKSTSGGTAALGCLVKDYFPEPVTVSWNSGALTSGVHTFPAVLQSSGLYSLSSVVTVPSSSLGTQTYICNVNHKPSNTKVDKKVEPKSCGGGGSGGGGSQAVVTQEPSLTVSPGGTVTLTCGSSTGAVTTSNYANWVQQKPGKSPRGLIGGTNKRAPGVPARFSGSLLGGKAALTISGAQPEDEADYYCALWYSNHWVFGGGTKLTVLGKPGSGKPGSGKPGSGKPGSEVQLVESGGGLVQPGGSLRLSCAASGFTFSTYAMNWVRQAPGKGLEWVGRIRSKANNYATYYADSVKGRFTISRDDSKNTLYLQMNSLRAEDTAVYYCVRHGNFGDSYVSWFAYWGQGTLVTVSSGGGGSGGGGSKTHTCPPCPAPPVAGPSVFLFPPKPKDTLMISRTPEVTCVVVDVKHEDPEVKFNWYVDGVEVHNAKTKPREEQYNSTYRVVSVLTVLHQDWLNGKEYKCKVSNKALPAPIEKTISKAKGQPREPQVYTLPPSREQMTKNQVKLTCLVKGFYPSDIAVEWESNGQPENNYKTTPPVLDSDGSFFLYSKLTVDKSRWQQGNVFSCSVMHEALHNHYTQKSLSLSPGK
heavy 2: EVQVEQSGLELVKPGASVKISCKTSGYTFTEYTMHWVKQSHGKSLEWIGGINPNNGNTRYNQKFKDKATLTVDKSSRTAYMELHTLTSEDSAVYYCARCGDYDLFFFFAYWGQGTLVTVSAASTKGPSVFPLAPSSKSTSGGTAALGCLVKDYFPEPVTVSWNSGALTSGVHTFPAVLQSSGLYSLSSVVTVPSSSLGTQTYICNVNHKPSDTKVDKKVEPKSCDKTHTCPPCPAPPVAGPSVFLFPPKPKDTLMISRTPEVTCVVVDVKHEDPEVKFNWYVDGVEVHNAKTKPREEEYNSTYRVVSVLTVLHQDWLNGKEYKCKVSNKALPAPIEKTISKAKGQPREPQVYTLPPSREEMTKNQVSLTCDVSGFYPSDIAVEWESDGQPENNYKTTPPVLDSDGSFFLYSKLTVDKSRWEQGDVFSCSVMHEALHNHYTQKSLSLSPGK
light: DIVMTQFQKFMSTSVGDRVSVTCKASQNVGTNVAWYQQKPGQSPEALISSASSRFSGVPDRFTGSGSGTDFTLTITNVQSEDLADYFCQQYNSFPFTFGSGTELEIKRTVAAPSVFIFPPSDEQLKSGTASVVCLLNNFYPREAKVQWKVDNALQSGNSQESVTEQDSKDSTYSLSSTLTLSKADYEKHKVYACEVTHQGLSSPVTKSFNRGEC
notes: also called comparator molecule XENP37217
Consider B2, for which the binding result with human CLDN17 and with human CLDN8 was “binds” in each case.

B3: XENP37541 (Xtend analog to XENP37227) (bispecific antibody)
heavy 1: QVQLVQSGAEVKKPGASVKVSCKTSGYTFTEYTMHWVRQAPGQSLEWMGGIDPNNANTHYNQKFQGRVTITVDKSASTAYMELSSLRSEDTAVYYCARIYYFGRLYFDFWGAGTLVTVSSASTKGPSVFPLAPSSKSTSGGTAALGCLVKDYFPEPVTVSWNSGALTSGVHTFPAVLQSSGLYSLSSVVTVPSSSLGTQTYICNVNHKPSDTKVDKKVEPKSCDKTHTCPPCPAPPVAGPSVFLFPPKPKDTLMISRTPEVTCVVVDVKHEDPEVKFNWYVDGVEVHNAKTKPREEEYNSTYRVVSVLTVLHQDWLNGKEYKCKVSNKALPAPIEKTISKAKGQPREPQVYTLPPSREEMTKNQVSLTCDVSGFYPSDIAVEWESDGQPENNYKTTPPVLDSDGSFFLYSKLTVDKSRWEQGDVFSCSVLHEALHSHYTQKSLSLSPGK
heavy 2: QVQLVQSGAEVKKPGASVKVSCKTSGYTFTEYTMHWVRQAPGQSLEWMGGIDPNNANTHYNQKFQGRVTITVDKSASTAYMELSSLRSEDTAVYYCARIYYFGRLYFDFWGAGTLVTVSSASTKGPSVFPLAPSSKSTSGGTAALGCLVKDYFPEPVTVSWNSGALTSGVHTFPAVLQSSGLYSLSSVVTVPSSSLGTQTYICNVNHKPSNTKVDKKVEPKSCGGGGSGGGGSQAVVTQEPSLTVSPGGTVTLTCGSSTGAVTTSNYANWVQQKPGKSPRGLIGGTNKRAPGVPARFSGSLLGGKAALTISGAQPEDEADYYCALWYSNHWVFGGGTKLTVLGKPGSGKPGSGKPGSGKPGSEVQLVESGGGLVQPGGSLRLSCAASGFTFSTYAMNWVRQAPGKGLEWVGRIRSKANNYATYYADSVKGRFTISRDDSKNTLYLQMNSLRAEDTAVYYCVRHGNFGDSYVSWFAYWGQGTLVTVSSGGGGSGGGGSKTHTCPPCPAPPVAGPSVFLFPPKPKDTLMISRTPEVTCVVVDVKHEDPEVKFNWYVDGVEVHNAKTKPREEQYNSTYRVVSVLTVLHQDWLNGKEYKCKVSNKALPAPIEKTISKAKGQPREPQVYTLPPSREQMTKNQVKLTCLVKGFYPSDIAVEWESNGQPENNYKTTPPVLDSDGSFFLYSKLTVDKSRWQQGNVFSCSVLHEALHSHYTQKSLSLSPGK
light: not shown
notes: 2+1 Fab2-scFv-Fc, C6-30_H1.9_L1.187, CD3 High-Int #1, with Xtend Fc (M428L/N434S); copies: 1 + 1 + 2
For B3, the binding result in the test with human CLDN6 [2] was “binds”.

For the origin of these results see patent publication US20240400675A1 (published 2024).
